The text below walks through data of patent US12648946B2, “Combination of antibody-pyrrolobenzodiazepine derivative conjugate and PARP inhibitor” (DAIICHI SANKYO COMPANY, LIMITED, priority 2019, dated 2026).

Numbering of substitutions follows the chain as printed.

The test system of assay [1] is JEG-3, human choriocarcinoma cell line of human CLDN6-positive cells. Description: Internalization activity of antibodies (Mab-ZAP, CellTiter-Glo). Type of assay: cell-based. The conditions noted are these: antibody 1 nM with Mab-ZAP 0.5 nM, 5 days. The procedure:
(§1) Internalization activity of the mouse anti-CLDN6 antibodies B1 and C7 was evaluated by using the anti-mouse IgG reagent, to which a toxin that inhibits protein synthesis (saporin) had been conjugated, Mab-ZAP (Advanced Targeting Systems). In this evaluation, Mab-ZAP is incorporated into cells in a manner depending on the internalization activity of a mouse anti-CLDN6 antibody, and saporin, which inhibits protein synthesis, is released in the cells to suppress cell growth.
(§2) JEG-3 (ATCC HTB-36), a human choriocarcinoma cell line of human CLDN6-positive cells, NIH: OVCAR-3 (ATCC HTB-161), a human ovarian cancer cell line of human CLDN6-positive cells, or BxPC-3 (ATCC CRL-1687), a human pancreatic cancer cell line of human CLDN6-negative cells, was seeded in a 96-well cell culture microplate at 2×10^3 cells/well, and cultured under conditions of 37° C. and 5% CO2 overnight. On the next day, a mixed solution obtained by mixing each mouse anti-CLDN6 antibody or mouse IgG1 antibody (R&D Systems, Inc.) to a final concentration of 1 nM, with Mab-ZAP (final concentration: 0.5 nM) or AffiniPure Goat Anti-Mouse IgG, Fcγ Fragment Specific (Jackson ImmunoResearch Laboratories Inc.) (final concentration: 0.5 nM), without conjugated toxin, was added, and the cells were cultured under conditions of 37° C. and 5% CO2 for 5 days. The number of surviving cells was determined through quantification of ATP activity by using CellTiter-Glo Luminescent Cell Viability Assay (Promega Corporation).

For assay [2], the system named is BxPC-3, human pancreatic cancer cell line of human CLDN6-negative cells. The description is as above. It counts as cell-based. As to conditions: antibody 1 nM with Mab-ZAP 0.5 nM, 5 days. Here is the method: as §1, §2
Assay [3] relates to NIH: OVCAR-3, human ovarian cancer cell line of human CLDN6-positive cells. The assay is described as above. It counts as cell-based. As to conditions: antibody 1 nM with Mab-ZAP 0.5 nM, 5 days. The procedure:
as §1, §2

The target in a further assay is T1, human claudin-6 (Homo sapiens, UniProt P56747).
T1 construct: expressed in transfected cells; host or cells: CHO-K1 cells
T1 sequence (P56747 1-220): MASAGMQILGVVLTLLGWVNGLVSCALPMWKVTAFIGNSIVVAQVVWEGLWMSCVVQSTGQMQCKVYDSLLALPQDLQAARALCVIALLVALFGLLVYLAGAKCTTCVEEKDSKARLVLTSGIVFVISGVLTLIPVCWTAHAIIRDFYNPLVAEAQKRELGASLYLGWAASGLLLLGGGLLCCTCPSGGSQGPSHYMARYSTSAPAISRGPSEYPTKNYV
Briefly: FACS analysis of hybridoma antibodies on claudin-6 forced-expression cells. Type of assay: binding. As to conditions: human claudin-6-expressing CHO-K1 cells, cDNA transfection. The procedure:
Since the antigen for the 218B1 antibody and 218C7 antibody was estimated to be claudin-6 from the mass spectrometry, forced expression analysis by cDNA transfection was carried out.
On the technique in general: Flow cytometry measures light scatter and fluorescence of single cells or particles in a stream.

B1: B1: mouse anti-CLDN6 antibody from hybridoma 218B1; heavy chain variable region SEQ ID NO: 21, light chain SEQ ID NO: 19 (antibody, listed as Mus musculus, V domains shown)
VH: EVQLQQSGPELVKPGASVKISCKTSGYTFTEYTMHWVQQSHGKSLEWIGGVNPNSGDTSYNQKFKGKATLTVDKSSSTAYMELRSLTSEDSAVYYCARPGGYDVGYYAMDYWGQGTSVTVSS
VL: DIQMTQTASSLSASLGDRVTISCRASQDINNYLNWYQQKPDGTVKLLIYFTSRLHSGVPSRFSGSGSGTHYSLTITNLEQEDIATYFCQQGYPLPWTFGGGTKLEIK
modifications: amino acid sequence of variable region of B1 antibody heavy chain; amino acid sequence of variable region of B1 antibody light chain
For the molecule B1, the entries for the “Cell growth-suppressing effect (internalization activity)” value in assay [1], in assay [2] and in assay [3] were “cell growth-suppressing effect”, “no cell growth-suppressing effect” and “cell growth-suppressing effect”, respectively. Besides, the FACS reaction entry in the assay with human claudin-6 is “strong positive reaction”.

B2: C7: mouse anti-CLDN6 antibody from hybridoma 218C7; heavy chain variable region SEQ ID NO: 25, light chain SEQ ID NO: 23 (antibody, listed as Mus musculus, V domains shown)
VH: B1 VH
VL: B1 VL with F50S, N77H
modifications: amino acid sequence of variable region of C7 antibody heavy chain; amino acid sequence of variable region of C7 antibody light chain
In the case of B2, the “Cell growth-suppressing effect (internalization activity)” value in assay [1] was “cell growth-suppressing effect”; in assay [2], “no cell growth-suppressing effect”; in assay [3], “cell growth-suppressing effect”. For the same molecule, the FACS reaction result with human claudin-6 is recorded as “strong positive reaction”.
